Ends that are not written are not given here.
T1: peptide p6773 (human, not fully specified (residue 18))
T1 peptide: LPQPPPQAQPLLPQPQPC

T2: peptide p7564 (human, not fully specified (residue 1))
T2 construct: also called cleaved peptide
T2 peptide: CPSDSSEIVLD

T3: peptide p7605 (human, not fully specified (residue 1))
T3 peptide: CSEIVL

T4: peptide p7562 (human, not fully specified (residue 1))
T4 peptide: CDSSEIVLD

T5: peptide p7552 (human, not fully specified (residue 1))
T5 peptide: CSSEIVLD


What was measured:
[1] = target: T6, recombinant N-terminal 610 amino acids Huntingtin fragment recHTT610 (human, UniProt P42858 1-610); test: recHTT610 capture ELISA
T6 construct: range 1-610; Expressed in HEK293 freestyle cells and captured from cell extract by anti-V5 antibody; also called recombinant Huntingtin; reHTT610; not shown: two C-terminal V5 tags
T6 sequence (P42858 1-610): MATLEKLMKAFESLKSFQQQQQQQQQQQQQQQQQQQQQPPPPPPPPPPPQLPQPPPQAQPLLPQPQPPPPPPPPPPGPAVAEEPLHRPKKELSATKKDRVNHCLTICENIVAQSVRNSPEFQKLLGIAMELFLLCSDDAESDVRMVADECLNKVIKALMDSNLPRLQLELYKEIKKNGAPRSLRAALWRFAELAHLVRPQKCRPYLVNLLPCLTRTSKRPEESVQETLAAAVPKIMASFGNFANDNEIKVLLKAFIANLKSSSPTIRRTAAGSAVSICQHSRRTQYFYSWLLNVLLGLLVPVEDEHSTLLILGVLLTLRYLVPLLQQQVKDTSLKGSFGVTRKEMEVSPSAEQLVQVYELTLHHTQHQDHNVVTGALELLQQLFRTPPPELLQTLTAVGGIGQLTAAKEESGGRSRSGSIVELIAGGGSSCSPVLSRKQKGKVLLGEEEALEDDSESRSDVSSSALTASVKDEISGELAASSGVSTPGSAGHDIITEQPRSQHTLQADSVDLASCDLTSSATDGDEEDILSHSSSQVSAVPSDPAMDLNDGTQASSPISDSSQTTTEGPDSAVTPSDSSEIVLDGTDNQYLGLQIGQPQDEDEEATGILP
Procedure: Binding of antibodies to N-terminal fragment HTT610 was determined by a standard protein capture ELISA procedure using Maxisorb™ ELISA plates (Thermo; CatNr. 439454), coated with 50 μl of a 1:5000 rabbit anti V5 mAB (Sigma, CatNr. V8137), blocking with blocking buffer (PBS, 1% BSA, 0.1% Tween 20), capturing of recombinant Huntingtin from HEK cell extracts (100 ng/μl total protein) followed by incubation with several dilutions of mouse anti HTT sera (1:100; 1:300 and 1:900) or with mAB2166 as reference (diluted 1:2000; Millipore, Cat Nr. MAB2166) for 1 hour at RT. ELISA incubations, washing and detection procedures were performed according to standard procedures.
In contrast to specific anti peptide signals (FIG. 11), only 2 out of 9 mAB candidates, namely PRR13 and PRR18, specifically recognize recombinant Huntingtin when tested by recHTT610 capture ELISA (as explained in Example 1). These two candidates provided an outstanding signal to noise ratio (i.e. >=4; calculated reHTT610-specific signal: HEK ctrl extracts), and PRR13 was selected for epitope characterization (see Example 4) and variable chain sequencing (see below). PRR13 was determined as IgG subtype mouse IgG2a.

peptide p6773 = target: T1, peptide p6773; test: peptide ELISA / peptide microarray
peptide p7564 = target: T2, peptide p7564; test: peptide ELISA
peptide p7605 = target: T3, peptide p7605; test: peptide ELISA
peptide p7562 = target: T4, peptide p7562; test: peptide ELISA at a mAB concentration of 1 ng/µl
peptide p7552 = target: T5, peptide p7552; test: peptide ELISA at a mAB concentration of 1 ng/µl

signal to noise ratio (reHTT610-specific signal : HEK ctrl extracts) [1] | binding result (peptide p6773) | binding result (peptide p7564) | binding result (peptide p7562) | binding result (peptide p7552) | Binder | binding result (peptide p7605)
≥ 4 ratio | binds | – | – | – | monoclonal antibody PRR13 (antibody, mouse IgG2a, V domains shown, Mouse hybridoma mAb raised with p6773, typed mouse IgG2a; The consensus entries come from cDNA and appear to include the leader and the start of the constant region; also called mAB PRR13) VH: EVQLQQSAPELVKPGASVKMSCKASGYSFTDFYMKWVKQSHGKGLEWIGDIDPKNGDTFYNQKFKGRATLTVDKSSSTAYMQLNSLTTEDSAVYYCATYYGYTMDYWGQGTSVTVSS VL: QIVLTQSPAIMSASLGERVTMTCTASSSVTSSYLHWYQQKPGSSPKLWIYSTSNLASGVPARFSGSGSGTSYSLTISSMEAEDAATYYCHQYRRPPRTFGGGTKLEIKR | –
– | – | binds | binds | binds | monoclonal antibody M1D1 (antibody, mouse IgM, V domains shown, Mouse hybridoma mAb raised with p7564, typed mouse IgM; The consensus entries appear to include the leader and the start of the constant region; also called mAB M1D1) VH: EVQLVESGGGLVQPKGSLKLSCAASGFTFNTYAMNWVRQAPGKGLEWVARIRSKSNNYATYYADSVKDRFTISRDDSQSMLYLQMNNLKTEDTAMYYCVRHGEYGNPWFAYWGQGTLVTVSA VL: not shown | no binding (tested: mAB concentration of 1 ng/µl)

— US20170304384A1 (AFFIRIS, published 2017)
